Test results from PMC4130151.

Target: Fibronectin (UniProt P02751)
Experiment: SPR; BIAcore T100; FN covalently immobilised on CM5 chip; EF-Tu 0-10.0 μM injected in 10 mM HEPES, 150 mM NaCl, 3 mM EDTA, 0.005% P20, pH 7.4, 30 μL/min, 25°C; KD from equilibrium

Chain of UniProt P02751 (P02751 32-2477): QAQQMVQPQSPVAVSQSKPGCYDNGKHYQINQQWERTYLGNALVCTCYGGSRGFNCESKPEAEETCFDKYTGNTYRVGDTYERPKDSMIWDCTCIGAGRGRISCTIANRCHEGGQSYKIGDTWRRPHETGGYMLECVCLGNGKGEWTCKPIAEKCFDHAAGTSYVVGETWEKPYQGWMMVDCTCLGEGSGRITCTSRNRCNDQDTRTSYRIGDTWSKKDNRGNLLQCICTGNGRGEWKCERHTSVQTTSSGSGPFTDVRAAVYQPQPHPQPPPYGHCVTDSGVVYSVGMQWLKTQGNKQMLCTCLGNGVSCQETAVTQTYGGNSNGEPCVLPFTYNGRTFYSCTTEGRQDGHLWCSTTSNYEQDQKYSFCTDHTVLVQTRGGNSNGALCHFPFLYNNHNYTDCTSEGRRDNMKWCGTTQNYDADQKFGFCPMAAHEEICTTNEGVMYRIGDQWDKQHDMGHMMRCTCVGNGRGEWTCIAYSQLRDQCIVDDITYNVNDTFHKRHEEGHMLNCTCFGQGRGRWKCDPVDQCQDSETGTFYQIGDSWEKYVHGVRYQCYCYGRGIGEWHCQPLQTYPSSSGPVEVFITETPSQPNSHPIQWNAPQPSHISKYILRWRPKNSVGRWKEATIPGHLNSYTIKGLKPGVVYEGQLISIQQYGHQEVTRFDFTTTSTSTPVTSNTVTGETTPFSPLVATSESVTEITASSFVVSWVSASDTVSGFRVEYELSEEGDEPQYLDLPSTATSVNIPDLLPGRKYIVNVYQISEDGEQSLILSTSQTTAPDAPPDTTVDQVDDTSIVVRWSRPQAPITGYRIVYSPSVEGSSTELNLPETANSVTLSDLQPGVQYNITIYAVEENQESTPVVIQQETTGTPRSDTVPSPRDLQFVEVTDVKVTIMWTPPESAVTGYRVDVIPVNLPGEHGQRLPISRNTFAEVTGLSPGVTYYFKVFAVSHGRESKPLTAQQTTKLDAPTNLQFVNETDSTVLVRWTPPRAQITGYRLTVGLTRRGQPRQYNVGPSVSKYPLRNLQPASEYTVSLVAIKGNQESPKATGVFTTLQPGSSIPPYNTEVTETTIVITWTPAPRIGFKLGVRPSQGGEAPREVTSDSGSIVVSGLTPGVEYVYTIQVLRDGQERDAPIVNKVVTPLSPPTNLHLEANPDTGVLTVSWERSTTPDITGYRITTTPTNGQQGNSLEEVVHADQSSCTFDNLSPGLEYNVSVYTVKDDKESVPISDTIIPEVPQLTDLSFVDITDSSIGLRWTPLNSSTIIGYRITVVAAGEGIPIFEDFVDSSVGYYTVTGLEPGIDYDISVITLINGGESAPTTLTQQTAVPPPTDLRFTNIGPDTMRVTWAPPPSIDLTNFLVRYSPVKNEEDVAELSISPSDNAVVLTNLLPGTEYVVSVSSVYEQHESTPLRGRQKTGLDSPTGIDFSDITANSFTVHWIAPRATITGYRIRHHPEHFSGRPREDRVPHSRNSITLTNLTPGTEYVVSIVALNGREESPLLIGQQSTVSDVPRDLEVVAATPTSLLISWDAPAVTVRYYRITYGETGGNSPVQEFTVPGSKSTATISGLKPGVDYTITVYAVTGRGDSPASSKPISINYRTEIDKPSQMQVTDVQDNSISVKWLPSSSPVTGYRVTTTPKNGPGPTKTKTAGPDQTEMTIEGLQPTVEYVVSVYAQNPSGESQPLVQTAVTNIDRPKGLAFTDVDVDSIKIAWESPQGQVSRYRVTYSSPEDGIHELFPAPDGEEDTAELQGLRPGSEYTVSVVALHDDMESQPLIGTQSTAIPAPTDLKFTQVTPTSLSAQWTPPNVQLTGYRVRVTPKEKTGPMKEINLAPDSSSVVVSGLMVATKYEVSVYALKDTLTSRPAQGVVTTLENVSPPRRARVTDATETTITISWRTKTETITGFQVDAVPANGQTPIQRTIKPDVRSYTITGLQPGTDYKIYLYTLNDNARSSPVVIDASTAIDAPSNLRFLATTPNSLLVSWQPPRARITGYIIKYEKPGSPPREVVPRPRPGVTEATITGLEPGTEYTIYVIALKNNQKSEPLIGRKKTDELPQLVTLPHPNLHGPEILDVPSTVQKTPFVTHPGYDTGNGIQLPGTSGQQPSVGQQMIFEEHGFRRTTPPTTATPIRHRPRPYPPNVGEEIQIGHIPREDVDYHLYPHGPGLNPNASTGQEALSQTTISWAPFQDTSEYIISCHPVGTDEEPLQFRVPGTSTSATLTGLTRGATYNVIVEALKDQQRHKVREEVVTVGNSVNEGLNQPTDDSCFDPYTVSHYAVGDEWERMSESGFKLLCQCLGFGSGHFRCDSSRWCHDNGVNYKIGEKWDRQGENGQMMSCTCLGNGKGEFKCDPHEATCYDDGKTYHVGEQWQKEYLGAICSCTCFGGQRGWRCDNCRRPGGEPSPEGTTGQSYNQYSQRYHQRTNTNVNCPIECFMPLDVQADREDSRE

Substance: Mycobacterium avium subsp. paratuberculosis elongation factor Tu (from UniProt Q73SD1 1-396) (natural protein)
- Kd: 3.1 µM
